Experimental data: the supplement of paper PMC9112550, “Optimization of the antimicrobial peptide Bac7 by deep mutational scanning” (BMC Biology, 2022)

System: Escherichia coli TOP10
Experiment: shrunken log2 fold change of peptide-encoding DNA abundance (4.5 h post-induction vs induction); higher = less antimicrobial activity (less host growth inhibition)
Conditions: time post-induction: 4.5 h; library: site-saturation at positions 5, 18, 19, 20
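Note: peptides expressed intracellularly from a pBAD plasmid library in pooled LB shake-flask culture, induced with 0.3% L-arabinose, DNA abundance read by NGS, three biological replicates, DESeq2 with apeglm shrinkage.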

Row | Sequence | shrunken log2 fold change
1 | RRIRDRPPRLPRPRPRPVDRPRP | 0.358
2 | RRIRRRPPRLPRPRPRPKRRPRP | 0.525
3 | RRIRMRPPRLPRPRPRPAHMPRP | 0.281
4 | RRIRKRPPRLPRPRPRPGECPRP | 0.381
5 | RRIRYRPPRLPRPRPRPCCFPRP | -0.709
6 | RRIRNRPPRLPRPRPRPRFTPRP | -0.286
7 | RRIRFRPPRLPRPRPRPKTKPRP | 0.0287
8 | RRIRFRPPRLPRPRPRPLMSPRP | -0.0355
9 | RRIRWRPPRLPRPRPRPRIVPRP | 0.0526
10 | RRIRRRPPRLPRPRPRPWKLPRP | -0.0807
11 | RRIRARPPRLPRPRPRPEIRPRP | 0.132
12 | RRIRRRPPRLPRPRPRPGGDPRP | 0.48
13 | RRIRHRPPRLPRPRPRPDPMPRP | 0.0718
14 | RRIRYRPPRLPRPRPRPTAVPRP | -0.169
15 | RRIRVRPPRLPRPRPRPGVDPRP | 0.0334
16 | RRIRWRPPRLPRPRPRPCMMPRP | -0.229
17 | RRIRTRPPRLPRPRPRPIGAPRP | 0.089
18 | RRIRYRPPRLPRPRPRPMIKPRP | 0.0227
19 | RRIRMRPPRLPRPRPRPKMTPRP | 2.7
20 | RRIRCRPPRLPRPRPRPRNDPRP | -0.191
21 | RRIRTRPPRLPRPRPRPCHRPRP | -0.000687
22 | RRIRVRPPRLPRPRPRPYYDPRP | -0.429
23 | RRIRHRPPRLPRPRPRPNDNPRP | -1.03
24 | RRIRCRPPRLPRPRPRPVCFPRP | -0.141
25 | RRIRSRPPRLPRPRPRPPHEPRP | 0.229

Row | Sequence | shrunken log2 fold change
26 | RRIRLRPPRLPRPRPRPKDLPRP | -0.242
27 | RRIRQRPPRLPRPRPRPEQYPRP | -0.0417
28 | RRIRNRPPRLPRPRPRPNHCPRP | -0.216
29 | RRIRIRPPRLPRPRPRPYWAPRP | -1.07
30 | RRIRYRPPRLPRPRPRPSHMPRP | -0.0573
31 | RRIRYRPPRLPRPRPRPGSTPRP | -0.0367
32 | RRIRWRPPRLPRPRPRPDEPPRP | -0.00634
33 | RRIRWRPPRLPRPRPRPGECPRP | 0.00474
34 | RRIRRRPPRLPRPRPRPNTTPRP | -0.283
35 | RRIRARPPRLPRPRPRPSCYPRP | 0.0075
36 | RRIRIRPPRLPRPRPRPVQSPRP | -0.168
37 | RRIRNRPPRLPRPRPRPVLKPRP | 0.0485
38 | RRIRHRPPRLPRPRPRPNFNPRP | -0.509
39 | RRIRERPPRLPRPRPRPAWKPRP | -0.0447
40 | RRIRRRPPRLPRPRPRPIYNPRP | -0.246
41 | RRIRSRPPRLPRPRPRPVNYPRP | -0.0921
42 | RRIRDRPPRLPRPRPRPNILPRP | -0.437
43 | RRIRARPPRLPRPRPRPIQDPRP | 0.0826
44 | RRIRTRPPRLPRPRPRPDIKPRP | -0.197
45 | RRIRSRPPRLPRPRPRPLTSPRP | 1.55
46 | RRIRWRPPRLPRPRPRPMNIPRP | -0.541
47 | RRIRFRPPRLPRPRPRPHQIPRP | -0.387
48 | RRIRMRPPRLPRPRPRPSKAPRP | 0.455
49 | RRIRDRPPRLPRPRPRPSNCPRP | -0.576
50 | RRIRDRPPRLPRPRPRPLAEPRP | 1.17
